According to IntAct's records for PubMed 29374201:

B1: Complement factor H (Homo sapiens), P08603-2 (parent)
chain: MRLLAKIICLMLWAICVAEDCNELPPRRNTEILTGSWSDQTYPEGTQAIYKCRPGYRSLGNVIMVCRKGEWVALNPLRKCQKRPCGHPGDTPFGTFTLTGGNVFEYGVKAVYTCNEGYQLLGEINYRECDTDGWTNDIPICEVVKCLPVTAPENGKIVSSAMEPDREYHFGQAVRFVCNSGYKIEGDEEMHCSDDGFWSKEKPKCVEISCKSPDVINGSPISQKIIYKENERFQYKCNMGYEYSERGDAVCTESGWRPLPSCEEKSCDNPYIPNGDYSPLRIKHRTGDEITYQCRNGFYPATRGNTAKCTSTGWIPAPRCTLKPCDYPDIKHGGLYHENMRRPYFPVAVGKYYSYYCDEHFETPSGSYWDHIHCTQDGWSPAVPCLRKCYFPYLENGYNQNYGRKFVQGKSIDVACHPGYALPKAQTTVTCMENGWSPTPRCIRVSFTL
partner: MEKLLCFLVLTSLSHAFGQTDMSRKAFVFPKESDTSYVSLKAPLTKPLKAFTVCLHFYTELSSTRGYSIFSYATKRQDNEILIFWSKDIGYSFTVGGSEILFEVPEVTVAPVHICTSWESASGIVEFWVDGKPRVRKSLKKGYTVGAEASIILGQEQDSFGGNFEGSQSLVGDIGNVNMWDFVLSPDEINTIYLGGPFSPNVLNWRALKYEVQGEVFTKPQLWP
B2: Complement factor H (Homo sapiens), P08603 (parent)
chain: MRLLAKIICLMLWAICVAEDCNELPPRRNTEILTGSWSDQTYPEGTQAIYKCRPGYRSLGNVIMVCRKGEWVALNPLRKCQKRPCGHPGDTPFGTFTLTGGNVFEYGVKAVYTCNEGYQLLGEINYRECDTDGWTNDIPICEVVKCLPVTAPENGKIVSSAMEPDREYHFGQAVRFVCNSGYKIEGDEEMHCSDDGFWSKEKPKCVEISCKSPDVINGSPISQKIIYKENERFQYKCNMGYEYSERGDAVCTESGWRPLPSCEEKSCDNPYIPNGDYSPLRIKHRTGDEITYQCRNGFYPATRGNTAKCTSTGWIPAPRCTLKPCDYPDIKHGGLYHENMRRPYFPVAVGKYYSYYCDEHFETPSGSYWDHIHCTQDGWSPAVPCLRKCYFPYLENGYNQNYGRKFVQGKSIDVACHPGYALPKAQTTVTCMENGWSPTPRCIRVKTCSKSSIDIENGFISESQYTYALKEKAKYQCKLGYVTADGETSGSITCGKDGWSAQPTCIKSCDIPVFMNARTKNDFTWFKLNDTLDYECHDGYESNTGSTTGSIVCGYNGWSDLPICYERECELPKIDVHLVPDRKKDQYKVGEVLKFSCKPGFTIVGPNSVQCYHFGLSPDLPICKEQVQSCGPPPELLNGNVKEKTKEEYGHSEVVEYYCNPRFLMKGPNKIQCVDGEWTTLPVCIVEESTCGDIPELEHGWAQLSSPPYYYGDSVEFNCSESFTMIGHRSITCIHGVWTQLPQCVAIDKLKKCKSSNLIILEEHLKNKKEFDHNSNIRYRCRGKEGWIHTVCINGRWDPEVNCSMAQIQLCPPPPQIPNSHNMTTTLNYRDGEKVSVLCQENYLIQEGEEITCKDGRWQSIPLCVEKIPCSQPPQIEHGTINSSRSSQESYAHGTKLSYTCEGGFRISEENETTCYMGKWSSPPQCEGLPCKSPPEISHGVVAHMSDSYQYGEEVTYKCFEGFGIDGPAIAKCLGEKWSHPPSCIKTDCLSLPSFENAIPMGEKKDVYKAGEQVTYTCATYYKMDGASNVTCINSRWTGRPTCRDTSCVNPPTVQNAYIVSRQMSKYPSGERVRYQCRSPYEMFGDEEVMCLNGNWTEPPQCKDSTGKCGPPPPIDNGDITSFPLSVYAPASSVEYQCQNLYQLEGNKRITCRNGQWSEPPKCLHPCVISREIMENYNIALRWTAKQKLYSRTGESVEFVCKRGYRLSSRSHTLRTTCWDGKLEYPTCAKR
partner: B1 partner
B3: Complement factor H (Homo sapiens), P08603-2 (parent)
chain: B1 chain

Variants of: B1
Conditions: with crp_human CRP

Row | effect of a mutation on the interaction | Variant
1 | decreasing interaction strength | Y402H

Variants of: B2
Conditions: with crp_human CRP

Row | effect of a mutation on the interaction | Variant
2 | decreasing interaction strength | Y402H

Variants of: B3
Conditions: with ptx3_human PTX3, P26022
Chain of ptx3_human PTX3, P26022 (P26022 whole entry): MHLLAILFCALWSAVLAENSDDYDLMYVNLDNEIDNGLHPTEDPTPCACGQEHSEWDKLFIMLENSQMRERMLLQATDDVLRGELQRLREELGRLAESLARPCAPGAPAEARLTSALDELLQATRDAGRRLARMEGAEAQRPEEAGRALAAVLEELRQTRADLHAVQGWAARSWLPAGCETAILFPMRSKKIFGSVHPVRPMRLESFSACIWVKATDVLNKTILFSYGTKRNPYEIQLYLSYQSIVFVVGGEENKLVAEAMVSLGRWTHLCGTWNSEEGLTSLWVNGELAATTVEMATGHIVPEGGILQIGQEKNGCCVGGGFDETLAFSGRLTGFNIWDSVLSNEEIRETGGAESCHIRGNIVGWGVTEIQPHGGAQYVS

Row | effect of a mutation on the interaction | Variant
3 | disrupting interaction strength | Y402H

Variants of: B3
Conditions: with ptx3_human PTX3, P26022
Remark: another data set of the same source

Row | effect of a mutation on the interaction | Variant
4 | decreasing interaction strength | Y402H
